Measurements: ChEMBL document CHEMBL1773060, “Two-step synthesis of novel, bioactive derivatives of the ubiquitous cofactor nicotinamide adenine dinucleotide (NAD)” (J Med Chem, 2011)

Substrate: NC(=O)c1ccc[n+]([C@@H]2O[C@H](COP(=O)([O-])OP(=O)(O)OC[C@H]3O[C@@H](n4cnc5c(N)ncnc54)[C@H](O)[C@@H]3O)[C@@H](O)[C@H]2O)c1
Assay: Activity at human SIRT1 assessed as ADP-ribosyltransferase activity

B1: NAD-dependent protein deacetylase sirtuin-1 (Homo sapiens), Q96EB6 (protein)
chain: MADEAALALQPGGSPSAAGADREAASSPAGEPLRKRPRRDGPGLERSPGEPGGAAPEREVPAAARGCPGAAAAALWREAEAEAAAAGGEQEAQATAAAGEGDNGPGLQGPSREPPLADNLYDEDDDDEGEEEEEAAAAAIGYRDNLLFGDEIITNGFHSCESDEEDRASHASSSDWTPRPRIGPYTFVQQHLMIGTDPRTILKDLLPETIPPPELDDMTLWQIVINILSEPPKRKKRKDINTIEDAVKLLQECKKIIVLTGAGVSVSCGIPDFRSRDGIYARLAVDFPDLPDPQAMFDIEYFRKDPRPFFKFAKEIYPGQFQPSLCHKFIALSDKEGKLLRNYTQNIDTLEQVAGIQRIIQCHGSFATASCLICKYKVDCEAVRGDIFNQVVPRCPRCPADEPLAIMKPEIVFFGENLPEQFHRAMKYDKDEVDLLIVIGSSLKVRPVALIPSSIPHEVPQILINREPLPHLHFDVELLGDCDVIINELCHRLGGEYAKLCCNPVKLSEITEKPPRTQKELAYLSELPPTPLHVSEDSSSPERTSPPDSSVIVTLLDQAAKSNDDLDVSESKGCMEEKPQEVQTSRNVESIAEQMENPDLKNVGSSTGEKNERTSVAGTVRKCWPNRVAKEQISRRLDGNQYLFLPPNRYIFHGAEVYSDSEDDVLSSSSCGSNSDSGTCQSPSLEEPMEDESEIEEFYNGLEDEPDVPERAGGAGFGTDGDDQEAINEAISVKQEVTDMNYPSNKS
Km: 80 µM
